Laboratory results from patent US20030017619A1.

target: IgG class antibody in the serum of a patient with IgA nephropathy which showed positive in example 1; experiment: inhibition ELISA: serum pre-incubated with 1 µg/ml peptide solution (1:1), then added to immobilized hinge peptide-BSA; anti-human IgG, absorbancy at 490 nm

| Binder | difference in the absorption between the added group and the blank solution [%] |
| --- | --- |
| PSTPP [synthetic peptide Pro Ser Thr Pro Pro] | > 10 |
| PSPST [synthetic peptide Pro Ser Pro Ser Thr] | > 10 |
| PSPSC [synthetic peptide Pro Ser Pro Ser Cys] | > 10 |

Next, values leading:

| difference in the absorption between the added group and the blank solution [%] | Binder |
| --- | --- |
| > 10 | PTPSP [synthetic peptide Pro Thr Pro Ser Pro] |
| > 10 | TPPTP [synthetic peptide Thr Pro Pro Thr Pro] |
| > 10 | PVPST [synthetic peptide Pro Val Pro Ser Thr] |
